# T1: Ol-bsf (Ol-lrpprc, Bicoid Stability Factor) (Oryzias latipes, UniProt H2LIH1 1-1438)
# T1 sequence: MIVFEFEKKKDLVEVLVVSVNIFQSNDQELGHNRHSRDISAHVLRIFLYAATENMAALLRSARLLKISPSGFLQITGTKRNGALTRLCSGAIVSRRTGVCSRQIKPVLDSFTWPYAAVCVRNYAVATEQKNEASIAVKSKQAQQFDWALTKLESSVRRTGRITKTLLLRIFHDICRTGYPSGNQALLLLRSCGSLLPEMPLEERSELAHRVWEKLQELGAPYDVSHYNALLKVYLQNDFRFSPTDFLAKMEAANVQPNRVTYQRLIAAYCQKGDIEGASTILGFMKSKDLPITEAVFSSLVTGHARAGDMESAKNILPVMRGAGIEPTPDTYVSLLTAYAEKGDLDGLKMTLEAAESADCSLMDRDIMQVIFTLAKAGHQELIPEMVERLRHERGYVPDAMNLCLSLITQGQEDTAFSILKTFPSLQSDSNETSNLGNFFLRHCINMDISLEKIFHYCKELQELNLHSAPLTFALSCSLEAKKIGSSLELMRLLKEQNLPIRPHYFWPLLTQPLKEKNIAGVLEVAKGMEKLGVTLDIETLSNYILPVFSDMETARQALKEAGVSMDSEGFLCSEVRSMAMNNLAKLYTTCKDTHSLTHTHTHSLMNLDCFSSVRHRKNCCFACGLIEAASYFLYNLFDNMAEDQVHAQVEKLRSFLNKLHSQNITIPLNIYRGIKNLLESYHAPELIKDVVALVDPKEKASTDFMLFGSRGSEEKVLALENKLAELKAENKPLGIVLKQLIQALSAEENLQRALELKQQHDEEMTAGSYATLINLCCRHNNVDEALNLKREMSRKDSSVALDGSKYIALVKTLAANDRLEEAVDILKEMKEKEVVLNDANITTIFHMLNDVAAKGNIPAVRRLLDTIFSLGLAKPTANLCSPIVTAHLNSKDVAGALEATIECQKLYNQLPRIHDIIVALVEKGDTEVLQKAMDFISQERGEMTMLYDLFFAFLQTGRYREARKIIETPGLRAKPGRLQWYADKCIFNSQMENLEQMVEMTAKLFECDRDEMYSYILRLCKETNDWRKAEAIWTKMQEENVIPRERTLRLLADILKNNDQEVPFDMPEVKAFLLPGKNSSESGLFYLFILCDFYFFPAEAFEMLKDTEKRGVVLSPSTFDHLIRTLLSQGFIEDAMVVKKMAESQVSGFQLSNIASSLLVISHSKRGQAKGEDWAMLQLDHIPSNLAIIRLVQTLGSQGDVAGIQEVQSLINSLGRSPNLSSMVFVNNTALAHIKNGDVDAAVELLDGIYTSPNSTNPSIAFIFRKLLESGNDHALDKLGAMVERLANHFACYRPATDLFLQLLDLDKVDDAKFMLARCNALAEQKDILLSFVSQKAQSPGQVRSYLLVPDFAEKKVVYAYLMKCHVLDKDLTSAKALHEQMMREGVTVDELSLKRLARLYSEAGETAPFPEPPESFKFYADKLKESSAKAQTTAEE
# How the values were obtained:
# [1] = target: T1, Ol-bsf (Ol-lrpprc, Bicoid Stability …); experiment: competition; vs labelled D3U-box, probe/competitor 1/5; EMSA: 10 mM Tris-HCl pH 7.9, 100 mM KCl, 10% glycerol, 5 mM MgCl2, 1 ug torula rRNA, 0.075% Triton X-100, 1 mM DTT, 1 ug BSA, 0.5 ng probe, 2 or 4 uL IVT mix in 20 uL, on ice 10 min; heparin (1/10 volume of 50 mg/mL) before loading; 5% native gel, 0.5x TBE; conditions: protein: ivt; tags: FLAG
# [2] = target: T1, Ol-bsf (Ol-lrpprc, Bicoid Stability …); experiment: EMSA; self-competition 1/1 to 1/4 gave progressive loss of shift; EMSA: 10 mM Tris-HCl pH 7.9, 100 mM KCl, 10% glycerol, 5 mM MgCl2, 1 ug torula rRNA, 0.075% Triton X-100, 1 mM DTT, 1 ug BSA, 0.5 ng probe, 2 or 4 uL IVT mix in 20 uL, on ice 10 min; heparin (1/10 volume of 50 mg/mL) before loading; 5% native gel, 0.5x TBE; conditions: protein: ivt; tags: FLAG; label: 5'-32P when probe
Binder,binding result [1],binding result [2]
UGGUUCACGUUCUUCAAGACGCUCUGACUCU (ssRNA) [D3U-scrambled box (S-D3U-box)],no binding,
UGGUUCACGUCUGCUGCAGGUCUCUGACUCU (ssRNA) [native medaka D3U-box],,binds
